From article PMC3688580, “Crystal Structure, SAXS and Kinetic Mechanism of Hyperthermophilic ADP-Dependent Glucokinase from Thermococcus litoralis Reveal a Conserved Mechanism for Catalysis” (PLoS ONE, 2013)

Substrate: Nc1ncnc2c1ncn2[C@@H]1O[C@H](COP(=O)(O)OP(=O)(O)O)[C@@H](O)[C@H]1O
Experiment: purified protein
Format: biochemical, Thermococcus litoralis
Details: co-substrate D-glucose varied, Mg2+ (constant free Mg2+), 25 mM Hepes pH 7.8, 40 °C, ordered Bi-Bi, first substrate

B1: TlGK (ADP-dependent glucokinase from Thermococcus litoralis) (Thermococcus litoralis DSM 5473) (protein)
chain: MKESLKDRIRLWKRLYVNAFENALNAIPNVKGVLLAYNTNIDAIKYLDKDDLEKRVTEIGKEKVFEIIENPPEKISSIEELLGGILRSIKLGKAMEWFVESEEVRRYLREWGWDELRIGGQAGIMANLLGGVYRIPTIVHVPQNPKLQAELFVDGPIYVPVFEGNKLKLVHPKDAIAEEEELIHYIYEFPRGFQVFDVQAPRENRFIANADDYNARVYMRREFREGFEEITRNVELAIISGLQVLKEYYPDGTTYRDVLDRVESHLNILNRYNVKSHFEFAYTANRRVREALVELLPKFTSVGLNEVELASIMEIIGDEELAKEVLEGHIFSVIDAMNVLMDETGIERIHFHTYGYYLALTQYRGEEVRDALLFASLAAAAKAMKGNLERIEQIRDALSVPTNERAIVLEEELEKEFTEFENGLIDMVDRQLAFVPTKIVASPKSTVGIGDTISSSAFVSEFGMRKR
notes: recombinant, purified from LB culture as in Merino et al. (heat shock, ammonium sulfate, two chromatographic steps); two-domain enzyme
B1 was tested, and the Km was 8.6 µM.
